Results from PMC4963090 (PLoS ONE, 2016).

B1: motavizumab Fab (Fab, V domains shown)
VH: QVTLRESGPALVKPTQTLTLTCTFSGFSLSTAGMSVGWIRQPPGKALEWLADIWWDDKKHYNPSLKDRLTISKDTSKNQVVLKVTNMDPADTATYYCARDMIFNFYFDVWGQGTTVTVSS
VL: DIQMTQSPSTLSASVGDRVTITCSASSRVGYMHWYQQKPGKAPKLLIYDTSKLASGVPSRFSGSGSGTEFTLTISSLQPDDFATYYCFQGSGYPFTFGGGTKVEIK
notes: Antigenic site II-directed antibody; also called Fab motavizumab; source: HEK 293-F, co-transfected heavy and light chain plasmids; IgG on Protein A, digested with Lys-C or HRV3C protease, Fab purified by SEC
B2: D25 Fab (Fab, V domains shown)
VH: QVQLVQSGAEVKKPGSSVMVSCQASGGPLRNYIINWLRQAPGQGPEWMGGIIPVLGTVHYAPKFQGRVTITADESTDTAYIHLISLRSEDTAMYYCATETALVVSTTYLPHYFDNWGQGTLVTVSS
VL: DIQMTQSPSSLSAAVGDRVTITCQASQDIVNYLNWYQQKPGKAPKLLIYVASNLETGVPSRFSGSGSGTDFSLTISSLQPEDVATYYCQQYDNLPLTFGGGTKVEIK
notes: Antigenic site Ø-directed antibody; also called Fab D25; source: HEK 293-F, co-transfected heavy and light chain plasmids; IgG on Protein A, digested with Lys-C or HRV3C protease, Fab purified by SEC

Assays:
[1] = target: head-only RSV F immunogen i-273 (respiratory syncytial virus subtype A, strain A2) (UniProt P03420); assay: negative-stain electron microscopy; immunogens alone or mixed with D25 and/or motavizumab Fabs; 20 mM HEPES pH 7.0, 150 mM NaCl; uranyl formate; reference-free 2D class averages
[2] = target: head-only RSV F immunogen i-273 (respiratory syncytial virus subtype A, strain A2) (UniProt P03420); assay: BLI; head-only variants (50 ug/ml) held on anti-His-tag (HIS1K) tips; Fabs in solution 0.016-0.5 uM; 30°C, PBS + 1% BSA; global 1:1 fit
[3] = target: head-only RSV F immunogen i-210 (respiratory syncytial virus subtype A, strain A2 | bacteriophage T4) (UniProt P03420); assay: as above
[4] = target: T1, head-only RSV F immunogen i-693 (Human respiratory syncytial virus A, …, S155C | S190F | V207L | S290C | S155C | S190F | V207L | S290C); assay: as above; details: both partners purified
T1 construct: RSV fusion (F) glycoprotein, subtype A strain A2, F2 segment of domain III, first monomer; numbers count on: PDB entry 4JHW; linker between F2 and F1; RSV fusion (F) glycoprotein, subtype A strain A2, F1 segment, first monomer; linker between the two identical monomers; RSV fusion (F) glycoprotein, subtype A strain A2, F2 segment of domain III, second monomer; RSV fusion (F) glycoprotein, subtype …
T1 chain: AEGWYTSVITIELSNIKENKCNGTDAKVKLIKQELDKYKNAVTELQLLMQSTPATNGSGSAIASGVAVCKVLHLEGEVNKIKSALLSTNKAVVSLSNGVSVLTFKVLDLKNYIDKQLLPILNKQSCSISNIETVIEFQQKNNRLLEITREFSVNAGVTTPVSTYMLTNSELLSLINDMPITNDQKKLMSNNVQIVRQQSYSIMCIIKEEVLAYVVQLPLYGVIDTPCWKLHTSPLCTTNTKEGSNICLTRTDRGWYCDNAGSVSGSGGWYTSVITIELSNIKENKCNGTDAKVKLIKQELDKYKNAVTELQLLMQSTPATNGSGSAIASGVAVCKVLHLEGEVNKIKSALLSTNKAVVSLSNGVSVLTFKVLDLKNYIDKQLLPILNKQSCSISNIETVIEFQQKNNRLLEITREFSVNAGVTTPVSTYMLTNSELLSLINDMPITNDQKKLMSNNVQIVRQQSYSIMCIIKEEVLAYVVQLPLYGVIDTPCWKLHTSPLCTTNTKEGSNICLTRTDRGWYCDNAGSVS

[5] = target: T2, head-only RSV F immunogen i-447 (Human respiratory syncytial virus A, …, S190F | S155C | S290C); assay: as above; details: both partners purified
T2 construct: RSV fusion (F) glycoprotein, subtype A strain A2, F1 segment of domain III (head); numbers count on: PDB entry 4JHW; linker; RSV fusion (F) glycoprotein, subtype A strain A2, F2 segment of domain III (head); MTQ-F1-GGPG-F2; A signal peptide for secretion was added; Tags are thrombin-cleavable: held by the His-tag or Strep-tag in BLI; said to be cleaved before SEC, EM and immunisation; also called …
T2 chain: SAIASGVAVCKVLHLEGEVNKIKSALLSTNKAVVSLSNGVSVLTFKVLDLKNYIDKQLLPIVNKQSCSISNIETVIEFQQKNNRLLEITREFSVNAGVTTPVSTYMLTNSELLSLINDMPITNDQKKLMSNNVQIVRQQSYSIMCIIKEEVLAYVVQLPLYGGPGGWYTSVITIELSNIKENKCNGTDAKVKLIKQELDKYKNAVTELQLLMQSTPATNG

[6] = target: T3, head-only RSV F immunogen i-210 (Human respiratory syncytial virus A, …, S155C | S190F | V207L | S290C | L258K); assay: as above; details: both partners purified
T3 construct: RSV fusion (F) glycoprotein, subtype A strain A2, F1 segment of domain III (head); numbers count on: PDB entry 4JHW; linker; RSV fusion (F) glycoprotein, subtype A strain A2, F2 segment of domain III (head); linker to the foldon; bacteriophage T4 foldon trimerization domain (of fibritin); Circular permutant F1-GGSGG-F2-GGSGGSG-foldon; A signal peptide for secretion was added; Tags are …
T3 chain: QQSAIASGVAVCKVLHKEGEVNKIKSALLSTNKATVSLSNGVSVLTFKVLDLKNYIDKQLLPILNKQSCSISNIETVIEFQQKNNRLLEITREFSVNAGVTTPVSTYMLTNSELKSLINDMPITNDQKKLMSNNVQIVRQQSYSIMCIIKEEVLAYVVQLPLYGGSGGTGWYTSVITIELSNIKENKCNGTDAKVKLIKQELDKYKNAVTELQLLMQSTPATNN

[7] = target: T4, head-only RSV F immunogen i-273 (Human respiratory syncytial virus A, …, S155C | S190F | V207L | S290C | L258K | L273K); assay: as above; details: both partners purified
T4 construct: RSV fusion (F) glycoprotein, subtype A strain A2, F1 segment of domain III (head); numbers count on: PDB entry 4JHW; linker; RSV fusion (F) glycoprotein, subtype A strain A2, F2 segment of domain III (head); Circular permutant F1-GG-F2; A signal peptide for secretion was added; Tags are thrombin-cleavable: held by the His-tag in the kinetic BLI; said to be cleaved before SEC, EM and immunisation; …
T4 chain: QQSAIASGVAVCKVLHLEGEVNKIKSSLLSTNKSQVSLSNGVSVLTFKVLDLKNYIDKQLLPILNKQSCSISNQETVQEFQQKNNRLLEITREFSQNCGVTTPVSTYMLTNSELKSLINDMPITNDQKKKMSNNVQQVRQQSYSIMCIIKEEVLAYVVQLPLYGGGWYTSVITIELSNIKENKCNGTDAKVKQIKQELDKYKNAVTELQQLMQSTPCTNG

Molecule	percent of particles with bound Fab [1]	Kd [2]	Kd [3]	Kd [4]	Kd [5]	Kd [6]	Kd [7]
motavizumab Fab	< 10%	1360 nM	761 nM				
B1				6.5 nM	0.5 nM		
B2				9.9 nM	0.7 nM	0.7 nM	33.3 nM
